Assay results reported in patent publication US20230393144A1 (I MAB BIOPHARMA US, published 2023).

Target: T1, anti-CD47 antibody TJC4
T1 construct: Tested as whole antibody; It was detected with an anti-human IgG4 secondary antibody, so it is human IgG4; also called therapeutic anti-CD47 antibody
Assay: indirect ELISA / blocking IC50 of the purified hybridoma antibody against anti-CD47 TJC4
Excerpt: The binding of the anti-idiotypic antibodies generated in Examples 2 and 3 to anti-CD47 TJC4 antibody was characterized by indirect ELISA assay, and the IC₅₀ of the anti-idiotypic antibodies was used as a measure of their potential effectiveness in reducing interference by a therapeutic anti-CD47 antibody in a serological assay. Lower IC₅₀ values indicated stronger blocking ability. […] The IC₅₀ value for 9F9H11H8, and, therefore, the blocking ability of 9F9H11H8, was better than those of 37F8C4G12 and 34D8H11B5 (i.e., anti-idiotypic antibodies produced by other hybridoma clones).

T1 sequence (VH, as listed by the source, chain 1 of 2): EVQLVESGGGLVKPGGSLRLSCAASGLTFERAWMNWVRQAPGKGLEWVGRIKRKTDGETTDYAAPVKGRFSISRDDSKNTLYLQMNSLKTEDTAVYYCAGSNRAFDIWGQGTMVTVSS
T1 sequence (VL, as listed by the source, chain 2 of 2): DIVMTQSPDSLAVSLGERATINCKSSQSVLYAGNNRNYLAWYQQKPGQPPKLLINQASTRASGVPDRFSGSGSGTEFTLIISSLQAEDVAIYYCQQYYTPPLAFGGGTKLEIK

IC50: 0.382 µg/mL
B1: anti-idiotypic antibody 9F9H11H8 (antibody, V domains shown)
VH: QIQLVQSGPELKKPGETVKISCKASGFTFTNYGMNWVRQAPGKGLKWMGWINTYTGQPTHADDFKGRFAFSLETSARTAFLEINSLQNEDTATYFCARGGMGVRLRYFDVWGAGTTVTVSS
VL: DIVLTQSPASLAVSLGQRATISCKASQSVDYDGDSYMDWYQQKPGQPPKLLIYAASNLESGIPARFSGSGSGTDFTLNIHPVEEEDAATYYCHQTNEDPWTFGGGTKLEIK
notes: also called 9F9H11F8
